Starred links: 1 amine or outer side, 2 acyl side, 3 side chain; linkers in the order of their positions; H or OH if unused. Positions of bridges follow the written chain, without caps; N, C: chain ends. Non-standard residues stand in square brackets, D forms with d. Primed or numbered codes have the meaning given here. B5(6) = 2-amino-2-(pent-4-en-1-yl)hept-6-enoic acid (bis(4-pentenyl)glycine), stitching residue, C=CCCCC(CCCC=C)(N[*:1])C(=O)[*:2]; B5 = 2-amino-2-(pent-4-en-1-yl)hept-6-enoic acid, C=CCCCC(CCCC=C)(N[*:1])C(=O)[*:2]; Phe(3-OMe) = COc1cccc(C[C@H](N)C(=O)O)c1; Bta = N[C@@H](Cc1csc2ccccc12)C(=O)O; αAllylPro = C=CC[C@@]1(C(=O)O)CCCN1; S8 = C=CCCCCCC[C@](C)(N)C(=O)O
What was measured:
[1] = target: T1, beta-catenin in DLD1 TCF/LEF luciferase reporter cells (Homo sapiens (Human), UniProt P35222 1-781); assay: cell-based or functional assay
T1 sequence: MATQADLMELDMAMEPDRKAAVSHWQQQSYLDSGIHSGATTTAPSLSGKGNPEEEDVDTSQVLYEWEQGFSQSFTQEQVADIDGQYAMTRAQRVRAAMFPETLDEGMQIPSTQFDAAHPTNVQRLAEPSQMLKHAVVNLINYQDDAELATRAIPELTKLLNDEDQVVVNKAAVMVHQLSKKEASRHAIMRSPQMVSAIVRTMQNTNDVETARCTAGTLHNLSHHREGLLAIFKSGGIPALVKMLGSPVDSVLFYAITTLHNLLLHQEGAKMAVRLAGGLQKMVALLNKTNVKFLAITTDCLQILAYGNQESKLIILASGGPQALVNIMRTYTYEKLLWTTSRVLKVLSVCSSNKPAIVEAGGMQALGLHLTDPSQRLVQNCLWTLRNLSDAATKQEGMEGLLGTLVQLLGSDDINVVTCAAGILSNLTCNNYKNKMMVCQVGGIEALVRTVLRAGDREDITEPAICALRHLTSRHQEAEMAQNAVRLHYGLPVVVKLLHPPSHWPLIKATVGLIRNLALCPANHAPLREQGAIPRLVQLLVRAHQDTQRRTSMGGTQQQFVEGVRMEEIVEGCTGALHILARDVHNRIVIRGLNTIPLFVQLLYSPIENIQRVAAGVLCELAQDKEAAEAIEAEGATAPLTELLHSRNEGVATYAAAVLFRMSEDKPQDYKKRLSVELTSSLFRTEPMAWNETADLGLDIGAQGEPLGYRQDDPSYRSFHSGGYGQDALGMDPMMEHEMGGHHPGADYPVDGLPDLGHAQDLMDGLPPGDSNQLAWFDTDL

[2] = target: T2, B-cat-Halo (beta-catenin HaloTag NanoBRET construct expressed in HEK293 cells) (UniProt P35222 1-781); assay: NanoBRET target engagement in HEK293 cells (B-cat-Halo / TCF4-Luc); competitor TCF4-Luc
T2 construct: Transfected together with TCF4-Luc into HEK293 cells; not shown: HaloTag
T2 sequence (looked up): T1 sequence

[3] = target: T3, full-length beta-Catenin (Uniprot ID P35222) (Homo sapiens (Human), UniProt P35222 1-781); assay: fluorescence polarization competition; 10 nM full-length beta-catenin + 10 nM 5FAM-TCF4(10-53) probe
T3 construct: also called bCat; B-Catenin
T3 sequence: T1 sequence
Experimental: (§1) The plate was incubated protected from light for 60 minutes at 20° C. prior to read. Reads were performed on a CLARIOstar plate reader (BMG Labtech) in duplicate, and data were fitted to a 1:1 binding model with hill slope using an in-house script. All provided concentrations are final concentrations.

[4] = target: T2, B-cat-Halo (beta-catenin HaloTag …); assay: NanoBRET target engagement in HEK293 cells (B-cat-Halo / TCF4-Luc); absolute IC50; competitor TCF4-Luc
[5] = target: T4, full-length beta-Catenin (Uniprot ID P35222) (Homo sapiens (Human), UniProt P35222 1-781); assay: fluorescence polarization competition; full-length beta-catenin with 5FAM-labeled TCF4 residues 10-53 probe as competitor
T4 construct: also called bCat; B-Catenin
T4 sequence: T1 sequence
Experimental: as §1

B1: I-505 (peptide)
peptide: Ac-[αAllylPro]DL[B5(6)]DEAAFQ[S8]F[Bta]Q-NH2
modifications: staple 1-4, 4-11
notes: Stapled peptide composition; also called Ac-PL3-Asp-Leu-B5-Asp-Glu-Ala-Ala-Phe-Gln-S8-Phe-BztA-Gln-NH2
[1]
  DLD1 reporter assay Abs IC50: 10.8 µM
[2]
  IC50: 5.6 µM
[3]
  EC50: 0.023 µM
[4]
  NanoBRET Abs IC50: 4.9 µM

## Ac-[αAllylPro]DI[B5]DEAA[Phe(3-OMe)]Q[S8]F[Bta]Q-NH2 (staple 1-4, 4-11, Stapled peptide composition) [I-724]
[5]
  EC50: 0.114 µM
